In patent US20250346679A1 (INVOX PHARMA, published 2025):

Key:
[1] = biological target: T1, cPD-L1-His (Acro Biosystems, PD1-C52H4) (cynomolgus, UniProt Q9NZQ7 19-238 (human entry)); assay: SPR, mAb^2 captured on Protein A chip, antigen in flow
T1 construct: bought; also called Cyno PD-L1-His; Cynomolgus PD-L1-His; not shown: His tag of the bought product
Procedure: (§1) Briefly, the anti-human CD137/PD-L1 mAb², diluted in HBS-EP buffer (GE Healthcare, BR100188) at 2 μg/ml, were injected individually on flows cell 2, 3 and 4 of a Protein A chip (GE Healthcare, 29127556) at 30 μl/min to achieve a final response of approximately 110 RU. Two different recombinant human PD-L1 antigens were used i.e. hPD-L1-His-Avi (see Example 1.3 for antigen details) and biotinylated hPD-L1-Avi-His (Acrobiosystems, PD-1-H82E5). Human and cynomolgus PD-L1-His (Acrobiosystems, PD-1-C52H4) antigens, diluted in HBS-EP buffer, were injected on flow cell 1, 2, 3 or 4 as appropriate at a concentration range of 81 nM to 0.037 nM with 3-fold dilutions for 4 min at 75 μl/min and then allowed to dissociate in buffer for 10 min. Regeneration was achieved by injecting 10 mM glycine-HCL pH1.5 (GE Healthcare, Human Antibody Capture Kit, BR00356) for 30 sec at a rate of 30 μl/min. Subtracted data (flow cell 2−flow cell 1, flow cell 3−flow cell 1, or flow cell 4−flow cell 1) were analysed using BIAevaluation 3.2 Software (GE Healthcare) to identify binding using the model 1:1 binding with mass transfer, with refractive index (RI) constant 0.

[2] = biological target: T2, biotinylated hPD-L1-Avi-His (Acro Biosystems, PD1-H82E5) (human, UniProt Q9NZQ7 19-238, biotinylated); assay: as above
T2 construct: bought; also called Human PD-L1-His; not shown: Avi and His tags of the bought product
Procedure: as §1

[3] = biological target: T3, cynomolgus CD137, cell-surface (cynomolgus, UniProt Q07011 24-255 (human entry)); assay: cell-based or functional assay
T3 chain: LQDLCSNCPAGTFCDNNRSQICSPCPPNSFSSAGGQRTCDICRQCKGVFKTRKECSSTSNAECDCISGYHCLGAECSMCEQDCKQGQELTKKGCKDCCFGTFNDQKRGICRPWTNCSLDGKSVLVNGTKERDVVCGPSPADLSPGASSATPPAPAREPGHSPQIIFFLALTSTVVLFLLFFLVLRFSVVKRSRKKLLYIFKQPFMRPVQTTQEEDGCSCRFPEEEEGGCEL

[4] = biological target: human CD137, cell-surface (human, UniProt Q07011 24-255); assay: cell-based or functional assay
cCD137-mFc-Avi = biological target: T4, cCD137-mFc-Avi (cynomolgus; mouse); assay: SPR, mAb^2 captured by anti-human Fab, antigen in flow
T4 construct: also called cynomolgus CD137-mFc-Avi; Cyno CD137-mFc-Avi; not shown: mouse IgG2a Fc domain (mIgG2a Fc)
T4 chain: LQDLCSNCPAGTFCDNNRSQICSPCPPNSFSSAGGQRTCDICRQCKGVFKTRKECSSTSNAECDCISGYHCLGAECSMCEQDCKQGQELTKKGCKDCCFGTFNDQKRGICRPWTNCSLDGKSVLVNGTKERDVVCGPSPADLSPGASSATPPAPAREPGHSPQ
Procedure: The binding of the anti-human CD137/PD-L1 mAb² to recombinant dimeric human and cynomolgus CD137 antigens was also measured by SPR using a Biacore T200 processing unit (GE Healthcare).
Briefly, 20 μg/ml anti-human Fab antibody (GE Healthcare, Human Fab Capture kit 28958325) was coated on flow cells 1, 2, 3 and 4 of a Biacore sensor S chip CM5 (GE Healthcare, BR100530) achieving a final response of approximately 5000 RU. […] The recombinant dimeric antigens, human CD137-mFc-Avi or cynomolgus CD137-mFc-Avi (see Example 1.1 for antigen details) diluted in HBS-EP buffer, were injected on flow cell 1, 2, 3 or 4 as appropriate at a concentration range of 81 nM to 0.037 nM with 3-fold dilutions for 4 minutes at 70 μl/min and then allowed to dissociate in buffer for 10 minutes. Regeneration was achieved by injecting 10 mM glycine pH 2.1 (GE Healthcare, Human Fab Capture kit 28958325) for 60 seconds at a rate of 30 μl/min. Data analysis was performed as described in Example 9.1.

[5] = biological target: human PD-L1, cell-surface (human, UniProt Q9NZQ7 19-290); assay: cell-based or functional assay
[6] = biological target: T3, cynomolgus CD137, cell-surface; assay: flow cytometry on DO11.10.cCD137
Procedure: Non-specific binding was also assessed by testing binding to DO11.10 cells lacking CD137 expression.
(§2) Briefly, DO11.10, DO11.10.hCD137 or DO11.10.cCD137 suspensions were prepared in FACS buffer (DPBS containing (Gibco, 14190-094) containing 0.5% BSA (Sigma, A7906)) and seeded at 1×10⁵ cell/well in 100 μl in round bottomed 96-well plates (VWR, 734-1797). […] The washed cells were resuspended in the diluted antibody mixture, incubated at 4° C. for 30 minutes, and then washed once in FACS buffer. […] Dead cells were excluded and the fluorescence in the APC channel (638 nm 660/20) was measured. The geometric mean fluorescence intensity (GMFI) values were plotted vs the log concentration of antibody and the resulting curves were fitted using the log (agonist) vs response equation in GraphPad Prism.

[7] = biological target: T5, cynomolgus PD-L1, cell-surface (cynomolgus); assay: flow cytometry on HEK.cPD-L1
T5 construct: also called HEK.cPD-L1; HEK.cyPD-L1
Procedure: Non-specific binding was also assessed by testing binding to HEK293 parental cells lacking human PD-L1 (Flp-In T-Rex 293 cell line, Life Technologies, R780-07).
as §2, with “HEK293, HEK.hPD-L1 and HEK.cPD-L1” for “Briefly, DO11.10, DO11.10.hCD137 or DO11.10.cCD137”, “(DPBS” for “(DPBS containing”

Sequence of human PD-L1, cell-surface (Q9NZQ7 19-290): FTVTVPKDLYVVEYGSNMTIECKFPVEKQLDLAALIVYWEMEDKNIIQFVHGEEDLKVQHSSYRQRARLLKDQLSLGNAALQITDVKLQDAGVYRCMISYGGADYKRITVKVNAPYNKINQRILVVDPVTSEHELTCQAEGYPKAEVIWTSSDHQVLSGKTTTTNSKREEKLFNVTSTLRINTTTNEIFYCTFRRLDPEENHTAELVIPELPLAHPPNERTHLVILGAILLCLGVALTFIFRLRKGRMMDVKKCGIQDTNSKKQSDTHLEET
T2 sequence (Q9NZQ7 19-238): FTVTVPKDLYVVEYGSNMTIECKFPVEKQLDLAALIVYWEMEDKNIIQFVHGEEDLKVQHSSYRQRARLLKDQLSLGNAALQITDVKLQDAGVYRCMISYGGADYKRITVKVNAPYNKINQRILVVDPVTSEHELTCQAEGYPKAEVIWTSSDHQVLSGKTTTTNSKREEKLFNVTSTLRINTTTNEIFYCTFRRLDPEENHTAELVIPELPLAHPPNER
T5 sequence (chain, as listed by the source limits assumed): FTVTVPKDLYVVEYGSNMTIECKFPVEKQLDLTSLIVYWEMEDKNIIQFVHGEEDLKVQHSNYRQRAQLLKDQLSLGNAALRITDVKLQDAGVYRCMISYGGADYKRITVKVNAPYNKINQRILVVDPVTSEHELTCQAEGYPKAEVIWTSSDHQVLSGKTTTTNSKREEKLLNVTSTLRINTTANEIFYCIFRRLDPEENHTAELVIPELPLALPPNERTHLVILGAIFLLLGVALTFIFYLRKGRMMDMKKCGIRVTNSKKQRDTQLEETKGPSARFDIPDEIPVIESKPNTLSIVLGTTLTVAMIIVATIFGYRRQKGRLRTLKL
T1 sequence (Q9NZQ7 other isoform, or with tags, fused parts or gaps): as the sequence (Q9NZQ7 19-238) above, with A33T, A34S, S62N, R68Q, Q82R, F173L, T185A, T192I, H215L counted along it

B1: FS22-172-003-AA/E12v2 (bispecific antibody, human IgG1, kappa, L234A L235A)
heavy: EVQLVQSGAEVKRPGASVKVSCKASGYPFTSYGISWVRQAPGQGLEWMGWISAYSGGTNYAQKLQGRVTMTTDTSTSTAYMELRSLRSDDTAVYYCARDLFPTIFGVSYYYYWGQGTLVTVSSASTKGPSVFPLAPSSKSTSGGTAALGCLVKDYFPEPVTVSWNSGALTSGVHTFPAVLQSSGLYSLSSVVTVPSSSLGTQTYICNVNHKPSNTKVDKKVEPKSCDKTHTCPPCPAPEAAGGPSVFLFPPKPKDTLMISRTPEVTCVVVDVSHEDPEVKFNWYVDGVEVHNAKTKPREEQYNSTYRVVSVLTVLHQDWLNGKEYKCKVSNKALPAPIEKTISKAKGQPREPQVYTLPPSRDELPYIIPPYNQVSLTCLVKGFYPSDIAVEWESNGQPENNYKTTPPVLDSDGSFFLYSKLTVGADRWLEGNVFSCSVMHEALHNHYTQKSLSLSPG
light: DIQMTQSPSTLSASVRDRVIITCRASQSIGNRLAWYQHKPGKAPKLLIYEASTSETGVPSRFSGSGSGTDFTLTISSLQPEDFATYYCQQSYSTPYTFGQGTKLEIKRTVAAPSVFIFPPSDEQLKSGTASVVCLLNNFYPREAKVQWKVDNALQSGNSQESVTEQDSKDSTYSLSSTLTLSKADYEKHKVYACEVTHQGLSSPVTKSFNRGEC
notes: PD-L1 site in the Fab, CD137 site in the CH3, LALA; also called anti-human CD137/PD-L1 mAb^2
Kd [1]: 0.36 nM | Kd [2]: 0.19 nM | EC50 (nM) (crosslinked), mIL-2 release, DO11.10.cCD137 with HEK.cyPD-L1 [3]: 0.06 nM | Emax (pg/ml) (crosslinked), mIL-2 release, DO11.10.cCD137 with HEK.cyPD-L1 [3]: 11300 pg/mL | EC50 (nM), IFN-γ release, CEFT antigen recall assay (CD4+ T cell activation) [4]: 0.08 nM | Kd (cCD137-mFc-Avi): 0.8 nM | EC50 (nM), IFN-γ release, human MLR [5]: 0.02 nM | Emax (pg/ml), IFN-γ release, human MLR [5]: 2630 pg/mL | EC50 [6]: 7.39 nM | EC50 [7]: 0.7 nM
